The labels stand for the following.
B1: I1-GS10-E85 pegylated, His-tagged (designed binder)
chain: MGVSDVPRDLEVVAATPTSLLISWSARLKVARYYRITYGETGGNSPVQEFTVPKNVYTATISGLKPGVDYTITVYAVTRFRDYQPISINYRTEIDKGSGSGSGSGSGSGSGSGSGSVSDVPRDLEVVAATPTSLLISWTQGSTHYQYYRITYGETGGNSPVQEFTVPGMVYTATISGLKPGVDYTITVYAVTDYFDRSTHEYKYRTTPISINYRTEIDKPCQHHHHHH
modifications: 40 kDa branched PEG on the Cys of the C-terminal Cys tail
B2: I1-GS10-E5-GSGC pegylated (designed binder)
chain: MGVSDVPRDLEVVAATPTSLLISWSARLKVARYYRITYGETGGNSPVQEFTVPKNVYTATISGLKPGVDYTITVYAVTRFRDYQPISINYRTEIEKGSGSGSGSGSGSGSGSGSGSVSDVPRDLEVVAATPTSLLISWWAPVDRYQYYRITYGETGGNSPVQEFTVPRDVYTATISGLKPGVDYTITVYAVTDYKPHADGPHTYHESPISINYRTEGSGCHHHHHH
modifications: PEG on the Cys of the GSGC tail of E5
notes: alternative clone of I1-GS10-E5 pegylated; also called I1-GS10-E5-GSGC(4)
B3: I1-GSGCGS8-E5 pegylated (designed binder)
chain: MGVSDVPRDLEVVAATPTSLLISWSARLKVARYYRITYGETGGNSPVQEFTVPKNVYTATISGLKPGVDYTITVYAVTRFRDYQPISINYRTEIEKGSGCGSGSGSGSGSGSGSGSVSDVPRDLEVVAATPTSLLISWWAPVDRYQYYRITYGETGGNSPVQEFTVPRDVYTATISGLKPGVDYTITVYAVTDYKPHADGPHTYHESPISINYRTEHHHHHH
modifications: PEG on the Cys of the GSGCGS8 linker
notes: alternative clone of I1-GS10-E5 pegylated; tail of first monomer EIEK (D to E); also called I1-GSGCGS8-E5(3)
B4: I1-GS10-E5(S62C) pegylated (designed binder)
chain: B3 chain with C100S, S176C
modifications: PEG on Cys at position 62 of E5 (position of SEQ ID NO: 1)
notes: also called I1-GS10-E5(S62C)(6)
B5: I1-GS10-E5 pegylated without the 6HIS tag (designed binder)
chain: B3 chain with E95D, C100S, H217I, H218D, H219K, H220P, H221C, H222Q
modifications: PEG on the Cys of the C-terminal Cys tail
notes: Whether the D-to-E change in the tail of the first monomer applies to this construct is not clear; also called I1-GS10-E5 pegylated(1)
B6: I1-GS10-E5(S91C) pegylated (designed binder)
chain: B3 chain with C100S, S210C
modifications: PEG on Cys at position 91 of E5 (position of SEQ ID NO: 1)
notes: also called I1-GS10-E5(S91C)(8)
B7: I1(S91C)-GS10-E5 pegylated (designed binder)
chain: B3 chain with S87C, C100S
modifications: PEG on Cys at position 91 of I1 (position of SEQ ID NO: 1)
notes: also called I1(S91C)-GS10-E5(7)
B8: I1(S62C)-GS10-E5 pegylated (designed binder)
chain: B3 chain with S62C, C100S
modifications: PEG on Cys at position 62 of I1 (position of SEQ ID NO: 1)
notes: also called I1(S62C)-GS10-E5(5)
B9: I1-GS10-E105 pegylated, His-tagged (designed binder)
chain: MGVSDVPRDLEVVAATPTSLLISWSARLKVARYYRITYGETGGNSPVQEFTVPKNVYTATISGLKPGVDYTITVYAVTRFRDYQPISINYRTEIDKGSGSGSGSGSGSGSGSGSGSVSDVPRDLEVVAATPTSLLISWDAPTSRYQYYRITYGETGGNSPVQEFTVPGGLSTATISGLKPGVDYTITVYAVTDYKPHADGPHTYHESPISINYRTEIDKPCQHHHHHH
modifications: 40 kDa branched PEG on the Cys of the C-terminal Cys tail

Substitutions are numbered along the chain they refer to. Names may count otherwise. “And” between values parts separate entries of the source, which are not always exact repeats. Identical values can stand only once.

The target in one experiment is T1, EGFR on the surface of human tumour cells (A431, H292) (human, UniProt P00533 25-1210).
T1 construct: whole, on cells; also called EGF receptor
Experiment: not given
The term IC50 denotes the midpoint of a concentration-inhibition curve. As for B1, the IC50 was determined as 37.8 nM.

A further experiment has as its target T2, IGF1R-Fc (extracellular domain of human IGF1R aa 1-932 fused to hinge and constant regions of human IgG1) (human, UniProt P08069 31-932).
T2 construct: range 1-932; made in house by transient transfection, purified on Protein A; also called IGF-IR-Fc; not shown: hinge and constant regions of human IgG1
Nature of the experiment: SPR Biacore, IGF1R-Fc; against I1-GS10-E5 pegylated. On the technique in general: In SPR one partner is held on a chip, and binding of the other changes the refractive index at the surface.
For the molecule B2, the “ΔKd (fold)” value was 1 fold, the “Δka (fold)” value turned out to be 1 fold and the “Δkd (fold)” value worked out at 1 fold.
For B3, the “ΔKd (fold)” value worked out at 0.9 fold, the “Δka (fold)” value is 0.8 fold and the “Δkd (fold)” value stood at 1.1 fold.
Regarding B4, the “ΔKd (fold)” value is 1 fold, the “Δka (fold)” value came to 1 fold and the “Δkd (fold)” value is 0.9 fold.
In the case of B5, the “ΔKd (fold)” value came to 1.1 fold, the “Δka (fold)” value was 1.2 fold and the “Δkd (fold)” value was found to be 0.9 fold.
With B6, the “ΔKd (fold)” value is 0.9 fold, the “Δka (fold)” value is 0.9 fold and the “Δkd (fold)” value stood at 0.9 fold.
Take B7: the “ΔKd (fold)” value worked out at 0.04 fold, the “Δka (fold)” value came to 0.1 fold and the “Δkd (fold)” value was 0.4 fold.
Consider B8, for which the “ΔKd (fold)” value was 0.4 fold, the “Δka (fold)” value was found to be 0.3 fold and the “Δkd (fold)” value is 1.1 fold.

Another experiment deals with T3, Recombinant human EGFR-Fc (aa 1-645 of the extracellular domain of human EGFR fused to human Fc) (human, UniProt P00533 25-645).
T3 construct: range 1-645; bought from R&D Systems; also called EGFR645-Fc; EGFR-Fc (HER-1); not shown: human Fc
Experiment: not given
What is called Kd is the equilibrium constant for the complex coming apart. As to B1, the Kd was 5.97 nM.

The target of the next experiment is T1, EGFR on the surface of human tumour …. Description: cell-based or functional assay.
For B2, the “pEGFR IC50” value was 28.7 nM and the “pERK IC50” value amounted to 19 nM.
B3: the “pEGFR IC50” value was 19.8 nM and the “pERK IC50” value is 8 nM.
For the molecule B4, the “pEGFR IC50” value turned out to be 68.4 nM and the “pERK IC50” value was determined as 30 nM.
In the case of B5, the “pEGFR IC50” value was 30 nM and the “pERK IC50” value was determined as 11 nM.
In the same order, the values of B6 are 22.6 nM and 29 nM.
For B7 the same measures were 22.7 nM and 15 nM.
Consider B8, for which the “pEGFR IC50” value is 21 nM and the “pERK IC50” value came out at 10 nM.

The target in another experiment is T4, IGF-IR on human tumour cells (H292, MCF-7, RH41) (human, UniProt P08069 31-1367). Description: cell-based or functional assay.
For B2, the “pIGFR IC50” value came out at 1.2 nM.
For B3, the “pIGFR IC50” value was 1.4 nM.
Same read-out and setting: as for B4, the figure is 2.2 nM.
In the case of B5, the “pIGFR IC50” value turned out to be 1.2 nM.
In the case of B6, the “pIGFR IC50” value was 2.1 nM.
For the molecule B7, the “pIGFR IC50” value came to 6.2 nM.
Still for that read-out and setting: as for B8, the figure is 1.9 nM.

For the next experiment, the target named is T2, IGF1R-Fc (extracellular domain of human …). Description: SPR Biacore, IGF1R-Fc.
What is called koff is a measure of how fast the partners let go of each other. Broadly, the kon is the rate constant with which the complex forms. With B2, binding was put at a Kd of 0.25 nM, the koff came out at 0.000265 s⁻¹ and the kon worked out at 1.07e+06 M⁻¹ s⁻¹.
Take B3: the Kd was 0.29 nM, the off-rate (koff) was determined as 0.000245 s⁻¹ and the kon worked out at 852000 M⁻¹ s⁻¹.
As for B4, the Kd amounted to 0.26 nM, the koff came out at 0.000279 s⁻¹ and the kon was 1.07e+06 M⁻¹ s⁻¹.
B5: the Kd was 0.22 nM and 0.23 nM; the koff was 0.000288 s⁻¹ and 0.000276 s⁻¹; the kon is 1.28e+06 M⁻¹ s⁻¹ and 1.22e+06 M⁻¹ s⁻¹.
As for B6, the Kd came out at 0.28 nM, the koff amounted to 0.000281 s⁻¹ and the kon came to 986000 M⁻¹ s⁻¹.
With B7, binding was put at a Kd of 7.16 nM, the koff is 0.000589 s⁻¹ and the kon amounted to 82200 M⁻¹ s⁻¹.
For B8 the same measures were 0.7 nM, 0.000234 s⁻¹ and 334000 M⁻¹ s⁻¹.

The next experiment addresses T3, Recombinant human EGFR-Fc (aa 1-645 of …). Description: SPR Biacore, EGFR645-Fc; against I1-GS10-E5 Pegylated.
For the molecule B2, the “ΔKd (fold)” value was determined as 2 fold, the “Δka (fold)” value is 1.1 fold and the “Δkd (fold)” value was 1.6 fold.
B3: the “ΔKd (fold)” value turned out to be 0.7 fold, the “Δka (fold)” value is 1 fold and the “Δkd (fold)” value was determined as 0.6 fold.
In the case of B4, the “ΔKd (fold)” value is 1.6 fold, the “Δka (fold)” value worked out at 0.6 fold and the “Δkd (fold)” value was found to be 2.4 fold.
With B6, the “ΔKd (fold)” value turned out to be 0.2 fold, the “Δka (fold)” value is 0.4 fold and the “Δkd (fold)” value was 0.4 fold.
On to B7, for which the “ΔKd (fold)” value worked out at 0.2 fold, the “Δka (fold)” value worked out at 0.7 fold and the “Δkd (fold)” value is 0.2 fold.
Regarding B8, the “ΔKd (fold)” value stood at 0.3 fold, the “Δka (fold)” value is 0.8 fold and the “Δkd (fold)” value amounted to 0.4 fold.

For a further experiment the target is unchanged. Nature of the experiment: SPR Biacore.
Regarding B2, the Kd was 1.4 nM.
Consider B3, for which the Kd turned out to be 4 nM.
As for B4, the equilibrium dissociation constant (Kd) worked out at 1.7 nM.
Take B6: the Kd amounted to 17.9 nM.
Regarding B7, the Kd was 17 nM.
As for B8, the Kd turned out to be 8.7 nM.

In a further experiment the target is T2, IGF1R-Fc (extracellular domain of human …). Nature of the experiment: SPR Biacore.
As to B2, binding was characterised by a dissociation constant (Kd) of 0.25 nM.
B3 returned a Kd of 0.29 nM.
B4: the affinity, expressed as Kd, was 0.26 nM.
With B5, binding was characterised by a dissociation constant (Kd) of 0.23 nM.
B6 yielded a Kd of 0.28 nM.
Molecule B7 registered a Kd of 7.16 nM.
As for B8, the Kd came out at 0.7 nM.

The next experiment concerns the target rat EGFR (rat, UniProt A0ABK0LZB0 35-1214). Nature of the experiment: SPR Biacore.
In turn, B1 had a Kd of 10.7 nM.
Same read-out and setting: next, B9: 2.9 nM.

The target in the next experiment is mouse EGFR (mouse, UniProt Q01279 25-647, limits assumed). Description: SPR Biacore.
Consider B1, for which binding was characterised by a dissociation constant (Kd) of 13.9 nM.
In the case of B9, the Kd came out at 2.7 nM.

A further experiment concerns the target monkey EGFR (monkey). Description: SPR Biacore.
B1: the Kd amounted to 7 nM.
For B9, binding was characterised by a dissociation constant (Kd) of 4.4 nM.

Another experiment deals with T3, Recombinant human EGFR-Fc (aa 1-645 of …). Nature of the experiment: SPR Biacore, EGFR645-Fc.
As for B2, the Kd was 1.4 nM, the koff came out at 4.52e-05 s⁻¹ and the kon was 33400 M⁻¹ s⁻¹.
In the same order, the values of B3 are 4 nM, 0.000118 s⁻¹ and 29400 M⁻¹ s⁻¹.
On to B4, for which the Kd is 1.7 nM, the koff was found to be 3.04e-05 s⁻¹ and the association rate constant (kon) stood at 17800 M⁻¹ s⁻¹.
As to B6, the Kd came to 17.9 nM, the koff amounted to 0.000193 s⁻¹ and the kon worked out at 10800 M⁻¹ s⁻¹.
Turning to B7, the Kd was determined as 17 nM, the koff turned out to be 0.000334 s⁻¹ and the kon amounted to 19600 M⁻¹ s⁻¹.
For the molecule B8, the Kd turned out to be 8.7 nM, the koff was 0.000199 s⁻¹ and the kon is 22800 M⁻¹ s⁻¹.

Another experiment concerns the target T1, EGFR on the surface of human tumour …. Description: cell-based or functional assay. This is another data set of the same source.
On to B1, for which the “IC50, EGF-induced EGFR phosphorylation, A431 cells, In Cell Western” value was determined as 22 nM; the “IC50, EGF-induced ERK phosphorylation, A431 cells, In Cell Western” value was 23 nM; the “IC50, EGF-stimulated EGFR phosphorylation, H292 cells, ELISA” value stood at 8 nM.

Another experiment deals with T4, IGF-IR on human tumour cells (H292, …). Nature of the experiment: cell-based or functional assay. The source holds these as a separate data set.
B1: the “IC50, IGF1-stimulated IGFR phosphorylation, H292 cells, ELISA” value came to 0.7 nM.
In the case of B9, the “IC50, IGF1-stimulated IGFR phosphorylation, H292 cells, ELISA” value stood at 0.5 nM.

The target in a further experiment is T2, IGF1R-Fc (extracellular domain of human …).
Experiment: not given
As to B1, the Kd amounted to 0.43 nM.

Source of the values: patent US20180037631A1 (Bristol-Myers Squibb, published 2018).
